From patent US20230002494A1 (SANYOU BIOPHARMACEUTICALS, published 2023)
Positions count from the first letter of the chain named. Like-named read-outs stand apart in the source and are kept apart here.

Assays:
[1] = biological target: T1, human PD-L1 (full-length, on cells) (human, UniProt Q9NZQ7 19-290); assay: FACS competition, human PD-L1-CHO cells, competitor biotin-labeled PD-1-Fc 1 µg/mL
T1 construct: whole, on cells; Expressed on CHO-s cells; also called human PD-L1-CHO; PD-L1-CHO

[2] = biological target: T1, human PD-L1 (full-length, on cells); assay: FACS, human PD-L1-CHO cells
Excerpt: (§1) In order to evaluate 4 derisked VHH-Fc candidate antibodies, an FACS method is used to detect the binding activities thereof to cell expressed human PD-L1 and monkey PD-L1 proteins.

[3] = biological target: T1, human PD-L1 (full-length, on cells); assay: FACS on human PD-L1-CHO cells, PE anti-human IgG Fc
Excerpt: 1) collecting the cultured human PD-L1-CHO cells, centrifuging the collected cells at 300 g to remove the supernatant, resuspending the cells in a formulated FACS buffer and counting the cells, and adjusting the density of the cell suspension to 2×10⁶ cells/mL;

[4] = biological target: T2, rhesus monkey PD-L1 (full-length, on CHO-s cells) (rhesus monkey, UniProt F6VEW6 19-290); assay: FACS, monkey PD-L1-CHO cells
T2 construct: whole, on cells; also called monkey PD-L1-CHO
Excerpt: as §1

[5] = biological target: T1, human PD-L1 (full-length, on cells); assay: FACS, human PD-L1-CHO cells; remark: listed apart in the source
[6] = biological target: T2, rhesus monkey PD-L1 (full-length, on …); assay: FACS, monkey PD-L1-CHO cells; remark: listed apart in the source
Excerpt: In order to evaluate the cross-reactivity of the VHH-Fc candidate antibodies to monkey PD-L1 and mouse PD-L1, an FACS method is used to detect the binding activity thereof to the mouse and rhesus monkey PD-L1 protein on cells.

[7] = biological target: T3, mouse PD-L1 (full-length, on CHO-s cells) (mouse, UniProt Q9EP73 19-290); assay: FACS, mouse PD-L1-CHO cells
T3 construct: whole, on cells; also called mouse PD-L1-CHO

[8] = biological target: T1, human PD-L1 (full-length, on cells); assay: FACS competition, human PD-L1-CHO cells, competitor biotin-labeled PD-1-Fc 1 µg/mL; remark: listed apart in the source
[9] = biological target: T4, B7-H3 protein, Sino Biological 11188-H08H (UniProt Q5ZPR3 29-461); assay: ELISA, plate coated with 2 µg/mL protein, anti-human IgG Fc-HRP, OD450; design: concentration or dose not given beside the values
T4 construct: Bought protein
T4 sequence (looked up): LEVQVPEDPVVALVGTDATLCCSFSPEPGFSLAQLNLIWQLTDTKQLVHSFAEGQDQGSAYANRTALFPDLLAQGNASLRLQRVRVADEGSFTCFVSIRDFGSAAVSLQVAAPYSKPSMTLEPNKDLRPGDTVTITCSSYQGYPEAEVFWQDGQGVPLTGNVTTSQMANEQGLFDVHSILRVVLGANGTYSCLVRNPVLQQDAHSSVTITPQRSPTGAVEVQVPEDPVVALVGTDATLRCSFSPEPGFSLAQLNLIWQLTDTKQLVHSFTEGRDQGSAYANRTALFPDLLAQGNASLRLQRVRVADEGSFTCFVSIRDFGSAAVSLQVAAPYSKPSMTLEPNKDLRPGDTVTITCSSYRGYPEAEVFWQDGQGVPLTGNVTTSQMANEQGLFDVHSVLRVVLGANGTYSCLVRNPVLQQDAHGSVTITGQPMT
Procedure: (§2) The specific method is as follows:
(§3) one day prior to the experiment, 30 μL of protein diluents such as B7-H1 (i.e., PDL1), B7-H2, B7-H3, B7-H4 and B7-DC (the above-mentioned proteins are all purchased from Sino Biological Co., Ltd., with Cat. Nos. 10084-HNAH, 11559-H08H, 11188-H08H, 10738-H08H and 10292-H08H-B, respectively) are added to an ELISA plate at a final concentration of 2 μg/mL, and incubated at 4° C. overnight; the next day, the ELISA plate is rinsed 3 times with PBST, then blocked with 150 μL of 5% PBSM, and incubated at room temperature for 2 hours; the ELISA plate is rinsed 3 times with PBST again, and then 30 μL of candidate antibody and control antibody diluents are added thereto, and the plate is incubated at room temperature for 1 hour; the plate is rinsed 3 times with PBST, and an anti-human IgG Fc-HRP second antibody diluted at 1:7000 is added thereto (30 μL/well), and the plate is incubated at room temperature for 30 minutes; the plate is rinsed 6 times with PBST, then TMB is added thereto for color development, and finally, 2M HCl is added to stop the reaction.

[10] = biological target: T5, B7-H2 protein, Sino Biological 11559-H08H (UniProt O75144 19-258); assay: as above; design: concentration or dose not given beside the values
T5 construct: Bought protein
T5 sequence (looked up): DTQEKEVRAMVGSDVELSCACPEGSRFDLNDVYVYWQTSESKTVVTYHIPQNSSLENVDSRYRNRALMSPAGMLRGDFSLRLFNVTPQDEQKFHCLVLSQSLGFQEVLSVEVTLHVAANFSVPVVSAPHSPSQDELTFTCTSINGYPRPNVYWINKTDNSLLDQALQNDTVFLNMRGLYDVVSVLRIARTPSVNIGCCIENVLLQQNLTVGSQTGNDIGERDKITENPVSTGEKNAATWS
Procedure: as §2, §3

[11] = biological target: T6, B7-H4 protein, Sino Biological 10738-H08H (UniProt Q7Z7D3 25-258); assay: as above; design: concentration or dose not given beside the values
T6 construct: Bought protein
T6 sequence (looked up): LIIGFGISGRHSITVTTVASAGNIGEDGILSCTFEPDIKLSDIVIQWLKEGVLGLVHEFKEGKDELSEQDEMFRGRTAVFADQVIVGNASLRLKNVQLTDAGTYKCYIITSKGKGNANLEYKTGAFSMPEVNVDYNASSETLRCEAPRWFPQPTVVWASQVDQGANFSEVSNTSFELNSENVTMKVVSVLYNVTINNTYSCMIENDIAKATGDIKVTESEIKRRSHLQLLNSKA
Procedure: as §2, §3

[12] = biological target: T7, B7-DC protein, Sino Biological 10292-H08H-B (UniProt Q9BQ51 20-219); assay: as above; design: concentration or dose not given beside the values
T7 construct: Bought protein
T7 sequence (looked up): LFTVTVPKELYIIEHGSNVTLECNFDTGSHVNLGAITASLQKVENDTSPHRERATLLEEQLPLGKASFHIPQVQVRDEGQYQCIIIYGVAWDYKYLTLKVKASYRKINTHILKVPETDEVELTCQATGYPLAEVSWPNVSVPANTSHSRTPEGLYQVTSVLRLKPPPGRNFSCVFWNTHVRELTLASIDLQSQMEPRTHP
Procedure: as §2, §3

[13] = biological target: T1, human PD-L1 (full-length, on cells); assay: FACS competition, human PD-L1-CHO cells, competitor biotin-labeled CD80 1 µg/mL
[14] = biological target: T1, human PD-L1 (full-length, on cells); assay: FACS on PD-L1-CHO cells, anti-Llama IgG FITC
[15] = biological target: T3, mouse PD-L1 (full-length, on CHO-s …); assay: FACS on mouse PD-L1-CHOK cells
[16] = biological target: T1, human PD-L1 (full-length, on cells); assay: FACS blocking on huPDL1-CHO cells; blocked ligand PD-1-Biotin 1 µg/mL; MFI = bound PD-1
[17] = biological target: T1, human PD-L1 (full-length, on cells); assay: FACS on huPD-L1-CHOK cells

T1 sequence (Q9NZQ7 19-290): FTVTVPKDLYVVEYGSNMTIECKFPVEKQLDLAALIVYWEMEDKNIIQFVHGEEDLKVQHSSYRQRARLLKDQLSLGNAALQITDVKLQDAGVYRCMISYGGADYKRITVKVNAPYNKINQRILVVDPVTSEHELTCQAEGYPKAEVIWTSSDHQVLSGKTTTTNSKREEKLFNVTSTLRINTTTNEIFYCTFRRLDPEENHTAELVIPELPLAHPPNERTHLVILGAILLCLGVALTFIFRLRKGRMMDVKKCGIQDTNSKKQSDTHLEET
T3 sequence (Q9EP73 19-290): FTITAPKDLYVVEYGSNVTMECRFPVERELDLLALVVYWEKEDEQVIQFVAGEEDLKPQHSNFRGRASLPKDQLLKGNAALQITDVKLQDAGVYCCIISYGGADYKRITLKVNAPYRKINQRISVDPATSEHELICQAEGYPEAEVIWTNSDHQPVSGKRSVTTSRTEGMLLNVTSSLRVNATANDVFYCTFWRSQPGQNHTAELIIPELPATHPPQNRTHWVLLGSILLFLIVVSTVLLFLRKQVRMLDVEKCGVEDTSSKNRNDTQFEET

B1: NB22D-21-huVH2 (Fc fusion, not shown: a dimerising Fc or GST)
chain: EVQLVESGGGLVQPGGSLRLSCAASRTDSNINGMHWYRQAPGKGREWVGTIFIDGNTIVTDSVKGRFTISRDNAKNTLYLQMNTLRAEDTAVYYCAADVSGYGRAWGQGTTVTVSS
notes: Humanized form of NB22D-21; also called humanized antibody NB22D-21-huVH2; D21-Vh2
**Q.** Which results are given for B1?
**A.** IC50 [1]: 1 µg/mL; EC50 [2]: 0.72 µg/mL; EC50 (read off the curve) [3]: ~0.1 µg/mL; EC50 [4]: 1.82 µg/mL

B2: NB22D-21 chimeric VHH-Fc antibody (Fc fusion)
chain: B1 chain with L4V, V5Q, P14A, A24H, G44Q, E46D, R86K, A87P, Y94F, T111Q
notes: also called parental antibody NB22D-21; parent molecule; not shown: human IgG1 Fc fragment, its N-terminus linked to the C-terminus of the VHH
**Q.** Which EC50 [5] does the source give for B2 here?
**A.** 0.39 µg/mL

**Q.** And the EC50 [6]?
**A.** 0.25 µg/mL

**Q.** Does B2 bind [7]?
**A.** binds

**Q.** What about the “EC50 (read off the curve)” value [3] of the same binder?
**A.** ~0.1 µg/mL

**Q.** And the IC50 [8]?
**A.** 0.41 µg/mL

**Q.** Does B2 bind [9]?
**A.** no binding (tested: 10.00 (no unit on the sheet))

**Q.** Does B2 bind [10]?
**A.** no binding (tested: 10.00 (no unit on the sheet))

**Q.** Does B2 bind [11]?
**A.** no binding (tested: 10.00 (no unit on the sheet))

**Q.** Does B2 bind [12]?
**A.** no binding (tested: 10.00 (no unit on the sheet))

**Q.** And the IC50 [13]?
**A.** 0.708 µg/mL

B3: SY01-208 (VHH lysate) (VHH)
VHH: B1 chain with A24H, N32F, G55A
notes: Tested as VHH lysate of a monoclone from the phage display vector
**Q.** Does B3 bind [14]?
**A.** binds

B4: SY01-NB-027-M (VHH lysate) (VHH)
VHH: B1 chain with A24H, G33S, I51W, V99E, S100W, G101M
notes: as for B3
**Q.** Does B4 bind [14]?
**A.** binds

B5: NB22D-21-4 VHH-Fc chimeric antibody protein (Fc fusion)
chain: B1 chain with S29R, G33T, G55L
notes: not shown: human IgG1 Fc fragment, its N-terminus linked to the C-terminus of the VHH
**Q.** Does B5 bind [15]?
**A.** no binding (tested: 20 µg/mL)

**Q.** And the IC50 [1]?
**A.** 0.3 µg/mL

**Q.** And the EC50 [2]?
**A.** 0.21 µg/mL

**Q.** And the EC50 [4]?
**A.** 0.3 µg/mL

**Q.** What about the “IC50 (read off the curve)” value [16] of the same binder?
**A.** ~0.2 µg/mL

**Q.** And the “EC50 (read off the curve)” value [17]?
**A.** ~0.2 µg/mL

B6: NB22D-21-24 VHH-Fc chimeric antibody protein (Fc fusion)
chain: B1 chain with D28F, N32F, D54T
notes: as for B5
**Q.** B6 was tested. Which IC50 [1] did it give?
**A.** 0.2 µg/mL

**Q.** What about the EC50 [2] of the same binder?
**A.** 0.14 µg/mL

**Q.** What about the EC50 [4] of the same binder?
**A.** 0.39 µg/mL

B7: control antibody KN035 (antibody, V domains shown)
VH: QVQLVESGGGLVQPGGSLRLSCAASGFTFSRRCKAWFRQAPGKERERVAKILTTSGSTYLADSVKGRFTISRDNSKNTVYLQMNSLRAEDTAVYYCAADSFEDPTCTLVTSSGAFQYWGQGTLVTVSS
notes: also called KN035 (control); positive control KN035
**Q.** What does the source list for B7?
**A.** EC50 [5]: 0.39 µg/mL; EC50 [6]: 0.21 µg/mL; EC50 (read off the curve) [3]: ~0.1 µg/mL; IC50 [8]: 0.39 µg/mL; IC50 (read off the curve) [16]: ~0.2 µg/mL; IC50 [13]: 0.631 µg/mL; EC50 (read off the curve) [17]: ~0.2 µg/mL
